Laboratory results taken from patent US20230014722A1.

Target: cynomolgus PD-1 (Sino Biological), coated on plates (cynomolgus) (UniProt B0LAJ3)
Test: ELISA, plates coated with cynomolgus PD-1 at 1 µg/ml

Chain of cynomolgus PD-1 (Sino Biological), coated on plates (cynomolgus) (B0LAJ3 entry or part of it limits assumed): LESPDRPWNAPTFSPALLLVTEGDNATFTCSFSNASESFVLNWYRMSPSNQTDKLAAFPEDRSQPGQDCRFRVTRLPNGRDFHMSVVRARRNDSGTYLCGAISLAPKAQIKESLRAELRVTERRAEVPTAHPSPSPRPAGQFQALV

EC50: 0.23 nM
Substance: Keytruda (antibody)
